Laboratory results published in patent publication US20220242939A1 (BIOARCTIC, published 2022).
Non-standard residues stand in square brackets, D forms with d. No end group written: not given here. Ahx = NCCCCCC(=O)O

Key:
[1] = target: 36A12, monoclonal anti-A199 antibody; test: inhibition ELISA; antibody at 0.05 ug/ml pre-incubated with the peptide in solution (4-fold dilutions from 10000 ng/ml), then on a plate coated with A199-BSA peptide; blank reduced OD 405 nm
Procedure: (§1) 0.5 μg/ml solution of N-terminal neo-epitope peptide A199 (SEQ ID NO:51) conjugated to BSA was prepared by dilution in PBS. 50 μl/well were added to an ELISA half-area 96 well microtiter plate, the plate was sealed with adhesive sealer and incubated over night at 4° C. After discarding the solution, the plates were blocked with protein-free blocking solution (Pierce) (150 μl/well) at room temperature for 90 min with shaking (900 rpm). The blocked plate was washed four times with washing buffer containing 0.28 mM NaH₂PO₄, 2.5 mM Na₂HPO₄, 150 mM NaCl, 0.1% TWEEN®-20 and 0.0075% Kathon CG.
(§2) Serial dilutions of each synthetic ApoE peptide were prepared by 4-fold dilution starting from 10000 ng/ml in 96 well storage plates (30 μl final volume). Each purified monoclonal antibody to be tested was added (30 μl) to the serial dilutions of each of the synthetic ApoE peptides at a final concentration of 0.05 μg/ml per well. Samples were pre-incubated for 45 min at room temperature with shaking (900 rpm).
(§3) The pre-incubated samples were transferred (50 μl/well) to the blocked ELISA plates, and plates were incubated for 10 min at room temperature without shaking. Plates were washed as described above. Alkaline phosphatase conjugated anti-mouse IgG detection antibody (Mabtech, cat. no. 3310-4) was diluted 1:1000 and added to each plate (50 μl/well). The plate was sealed and incubated with shaking (900 rpm) for 45 min at room temperature and subsequently washed as described above. Alkaline phosphatase substrate (50 μl/well) was added to the plate and the optical density was read every 10 min at a wavelength of 405 nm for up to 120 min. The IC50 values were determined from a log inhibitor concentration response curve (FIG. 29).

[2] = target: 38G9, monoclonal anti-A199 antibody; test: as above
Procedure: as §1, §2, §3

[3] = target: 23D5, recombinant IgG2c antibody; test: inhibition ELISA, second protocol; antibody at 0.05 ug/ml pre-incubated with the peptide in solution (4-fold dilutions from 10000 ng/ml), then on a plate coated with G200-BSA peptide; blank reduced OD 405 nm
Procedure: as §2, with “[…]” for “Serial”, “peptide, recombinant C-terminal ApoE fragment G200-HIS and full-length ApoE4” for “peptide”, “1000” for “10000”, “recombinant” for “purified monoclonal”, “peptides, G200-HIS or full-length ApoE4” for “peptides”
as §3, with “for 25” for “for 10”, “every 15” for “every 10”, “(FIG. 17).” for “(FIG. 29).”
(§4) In addition, a second inhibition ELISA with the ApoE peptides conjugated to BSA was run, in which the starting concentration of the antigens in solution was increased 10-fold. i.e. the starting concentration of the N-terminal neo-epitope of synthetic ApoE peptides conjugated to BSA and starting at amino acid L198 (SEQ ID NO:52), A199 (SEQ ID NO:51) or G200 (SEQ ID NO:50), or to BSA-conjugated negative control peptide (SEQ ID NO:53), was 10000 ng/ml. Furthermore, a 4-fold serial dilution of antigen was used, the plates were blocked with protein-free blocking solution (Pierce) for 90 min, the pre-incubated samples were incubated on the coated plates for 10 min (instead of 25 min), and the optical density was read every 10 min (instead of every 15 min). IC50 values were determined from a log inhibitor concentration response curve (FIG. 20).

[4] = target: 17G4, recombinant IgG2c antibody; test: as above
Procedure: as §2, with “[…]” for “Serial”, “peptide, recombinant C-terminal ApoE fragment G200-HIS and full-length ApoE4” for “peptide”, “1000” for “10000”, “recombinant” for “purified monoclonal”, “peptides, G200-HIS or full-length ApoE4” for “peptides”
as §3, with “for 25” for “for 10”, “every 15” for “every 10”, “(FIG. 17).” for “(FIG. 29).”
as §4

[5] = target: 7C7, recombinant IgG2c antibody; test: as above
Procedure: as §2, with “[…]” for “Serial”, “peptide, recombinant C-terminal ApoE fragment G200-HIS and full-length ApoE4” for “peptide”, “1000” for “10000”, “recombinant” for “purified monoclonal”, “peptides, G200-HIS or full-length ApoE4” for “peptides”
as §3, with “for 25” for “for 10”, “every 15” for “every 10”, “(FIG. 17).” for “(FIG. 29).”
as §4

[6] = target: 28F2, recombinant IgG2c antibody; test: as above
Procedure: as §2, with “[…]” for “Serial”, “peptide, recombinant C-terminal ApoE fragment G200-HIS and full-length ApoE4” for “peptide”, “1000” for “10000”, “recombinant” for “purified monoclonal”, “peptides, G200-HIS or full-length ApoE4” for “peptides”
as §3, with “for 25” for “for 10”, “every 15” for “every 10”, “(FIG. 17).” for “(FIG. 29).”
as §4

[7] = target: T1, 7B10, recombinant IgG2c antibody; test: as above
T1 construct: also called 7610
Procedure: as §2, with “[…]” for “Serial”, “peptide, recombinant C-terminal ApoE fragment G200-HIS and full-length ApoE4” for “peptide”, “1000” for “10000”, “recombinant” for “purified monoclonal”, “peptides, G200-HIS or full-length ApoE4” for “peptides”
as §3, with “for 25” for “for 10”, “every 15” for “every 10”, “(FIG. 17).” for “(FIG. 29).”
as §4

[8] = target: 6F4, monoclonal anti-L198 antibody; test: inhibition ELISA; antibody at 0.05 ug/ml pre-incubated with the peptide in solution (4-fold dilutions from 10000 ng/ml), then on a plate coated with L198-BSA peptide; blank reduced OD 405 nm
Procedure: as §1, with “L198” for “A199”, “NO:52)” for “NO:51)”
as §2, with “recombinant” for “purified monoclonal”
as §3, with “25).” for “29).”

[9] = target: 15H11, monoclonal anti-L198 antibody; test: inhibition ELISA: antigen in solution varied, antibody 15H11 at 0.05 µg/ml, plate coated with L198-BSA peptide
Procedure: as §1, with “L198” for “A199”, “NO:52)” for “NO:51)”
as §2, with “recombinant” for “purified monoclonal”
(§5) The pre-incubated samples were transferred (50 μl/well) to the blocked ELISA plates, and plates were incubated for 10 min at room temperature without shaking. […] Alkaline phosphatase substrate (50 μl/well) was added to the plate and the optical density was read every 10 min at a wavelength of 405 nm for up to 120 min. The IC50 values were determined from a log inhibitor concentration response curve (FIG. 25).

[10] = target: 63F6, monoclonal anti-A199 antibody; test: inhibition ELISA; antibody at 0.05 ug/ml pre-incubated with the peptide in solution (4-fold dilutions from 10000 ng/ml), then on a plate coated with A199-BSA peptide; blank reduced OD 405 nm
Procedure: as §1, §2, §3

[11] = target: 8B3, monoclonal anti-L198 antibody; test: inhibition ELISA: antigen in solution varied, antibody 8B3 at 0.05 µg/ml, plate coated with L198-BSA peptide
Procedure: as §1, with “L198” for “A199”, “NO:52)” for “NO:51)”
as §2, with “recombinant” for “purified monoclonal”
as §5

[12] = target: 12B1, monoclonal anti-L198 antibody; test: inhibition ELISA: antigen in solution varied, antibody 12B1 at 0.05 µg/ml, plate coated with L198-BSA peptide
Procedure: as §1, with “L198” for “A199”, “NO:52)” for “NO:51)”
as §2, with “recombinant” for “purified monoclonal”
as §5

[13] = target: 15F8, monoclonal anti-L198 antibody; test: inhibition ELISA: antigen in solution varied, antibody 15F8 at 0.05 µg/ml, plate coated with L198-BSA peptide
Procedure: as §1, with “L198” for “A199”, “NO:52)” for “NO:51)”
as §2, with “recombinant” for “purified monoclonal”
as §5

[14] = target: 6F4, monoclonal anti-L198 antibody; test: inhibition ELISA: antigen in solution varied, antibody 6F4 at 0.05 µg/ml, plate coated with L198-BSA peptide
Procedure: as §1, with “L198” for “A199”, “NO:52)” for “NO:51)”
as §2, with “recombinant” for “purified monoclonal”
as §5

[15] = target: 23D5, recombinant IgG2c antibody; test: inhibition ELISA; antibody at 0.05 ug/ml pre-incubated with the antigen in solution (3-fold dilutions from 1000 ng/ml), then on a plate coated with G200-BSA peptide; blank reduced OD 405 nm
Procedure: as §2, with “[…]” for “Serial”, “peptide, recombinant C-terminal ApoE fragment G200-HIS and full-length ApoE4” for “peptide”, “1000” for “10000”, “recombinant” for “purified monoclonal”, “peptides, G200-HIS or full-length ApoE4” for “peptides”
as §3, with “for 25” for “for 10”, “every 15” for “every 10”, “(FIG. 17).” for “(FIG. 29).”

[16] = target: 17G4, recombinant IgG2c antibody; test: as above
Procedure: as §2, with “[…]” for “Serial”, “peptide, recombinant C-terminal ApoE fragment G200-HIS and full-length ApoE4” for “peptide”, “1000” for “10000”, “recombinant” for “purified monoclonal”, “peptides, G200-HIS or full-length ApoE4” for “peptides”
as §3, with “for 25” for “for 10”, “every 15” for “every 10”, “(FIG. 17).” for “(FIG. 29).”

[17] = target: 7C7, recombinant IgG2c antibody; test: as above
Procedure: as §2, with “[…]” for “Serial”, “peptide, recombinant C-terminal ApoE fragment G200-HIS and full-length ApoE4” for “peptide”, “1000” for “10000”, “recombinant” for “purified monoclonal”, “peptides, G200-HIS or full-length ApoE4” for “peptides”
as §3, with “for 25” for “for 10”, “every 15” for “every 10”, “(FIG. 17).” for “(FIG. 29).”

[18] = target: 28F2, recombinant IgG2c antibody; test: as above
Procedure: as §2, with “[…]” for “Serial”, “peptide, recombinant C-terminal ApoE fragment G200-HIS and full-length ApoE4” for “peptide”, “1000” for “10000”, “recombinant” for “purified monoclonal”, “peptides, G200-HIS or full-length ApoE4” for “peptides”
as §3, with “for 25” for “for 10”, “every 15” for “every 10”, “(FIG. 17).” for “(FIG. 29).”

[19] = target: T1, 7B10, recombinant IgG2c antibody; test: as above
Procedure: as §2, with “[…]” for “Serial”, “peptide, recombinant C-terminal ApoE fragment G200-HIS and full-length ApoE4” for “peptide”, “1000” for “10000”, “recombinant” for “purified monoclonal”, “peptides, G200-HIS or full-length ApoE4” for “peptides”
as §3, with “for 25” for “for 10”, “every 15” for “every 10”, “(FIG. 17).” for “(FIG. 29).”

T1 sequence (VH, as listed by the source, chain 1 of 2): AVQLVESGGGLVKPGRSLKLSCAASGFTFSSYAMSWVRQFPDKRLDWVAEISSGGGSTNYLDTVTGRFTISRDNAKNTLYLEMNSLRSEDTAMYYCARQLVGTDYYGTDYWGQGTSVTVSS
T1 sequence (VL, as listed by the source, chain 2 of 2): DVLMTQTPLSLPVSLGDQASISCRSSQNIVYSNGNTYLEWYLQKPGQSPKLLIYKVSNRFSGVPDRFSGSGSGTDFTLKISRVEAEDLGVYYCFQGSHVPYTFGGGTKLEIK
Sequence of 38G9, monoclonal anti-A199 antibody (VH, as listed by the source, chain 1 of 2): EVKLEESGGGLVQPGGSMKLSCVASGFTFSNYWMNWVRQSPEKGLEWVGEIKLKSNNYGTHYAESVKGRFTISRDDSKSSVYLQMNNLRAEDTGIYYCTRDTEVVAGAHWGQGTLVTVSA
Sequence of 38G9, monoclonal anti-A199 antibody (VL, as listed by the source, chain 2 of 2): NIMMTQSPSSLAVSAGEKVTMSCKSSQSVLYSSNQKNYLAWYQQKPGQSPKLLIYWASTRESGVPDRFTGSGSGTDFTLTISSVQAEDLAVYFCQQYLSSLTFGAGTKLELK
Sequence of 7C7, recombinant IgG2c antibody (VH, as listed by the source, chain 1 of 2): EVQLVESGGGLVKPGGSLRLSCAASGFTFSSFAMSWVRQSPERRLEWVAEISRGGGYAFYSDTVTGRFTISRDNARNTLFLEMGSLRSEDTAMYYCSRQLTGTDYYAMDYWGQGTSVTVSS
Sequence of 7C7, recombinant IgG2c antibody (VL, as listed by the source, chain 2 of 2): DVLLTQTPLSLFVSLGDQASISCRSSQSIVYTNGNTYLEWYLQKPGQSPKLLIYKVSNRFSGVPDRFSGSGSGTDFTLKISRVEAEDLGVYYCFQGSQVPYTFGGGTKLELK
Sequence of 23D5, recombinant IgG2c antibody (VH, as listed by the source, chain 1 of 2): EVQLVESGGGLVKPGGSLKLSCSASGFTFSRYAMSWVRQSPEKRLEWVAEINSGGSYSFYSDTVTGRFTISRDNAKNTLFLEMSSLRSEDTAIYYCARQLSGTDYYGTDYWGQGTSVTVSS
Sequence of 23D5, recombinant IgG2c antibody (VL, as listed by the source, chain 2 of 2): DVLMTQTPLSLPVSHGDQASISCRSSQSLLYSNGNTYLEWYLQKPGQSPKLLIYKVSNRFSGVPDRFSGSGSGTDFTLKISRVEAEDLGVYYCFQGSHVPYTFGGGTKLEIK
Sequence of 6F4, monoclonal anti-L198 antibody (VH, as listed by the source, chain 1 of 2): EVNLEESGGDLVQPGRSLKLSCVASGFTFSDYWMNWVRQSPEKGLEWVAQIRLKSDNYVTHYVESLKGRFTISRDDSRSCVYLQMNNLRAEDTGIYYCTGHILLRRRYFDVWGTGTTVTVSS
Sequence of 6F4, monoclonal anti-L198 antibody (VL, as listed by the source, chain 2 of 2): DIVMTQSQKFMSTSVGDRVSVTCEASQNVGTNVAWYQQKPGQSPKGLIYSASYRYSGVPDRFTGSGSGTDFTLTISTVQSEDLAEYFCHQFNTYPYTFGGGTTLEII
Sequence of 17G4, recombinant IgG2c antibody (VH, as listed by the source, chain 1 of 2): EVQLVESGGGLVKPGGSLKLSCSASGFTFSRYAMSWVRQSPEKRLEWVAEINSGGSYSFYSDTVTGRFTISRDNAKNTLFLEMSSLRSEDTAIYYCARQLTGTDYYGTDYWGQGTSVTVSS
Sequence of 28F2, recombinant IgG2c antibody (VH, as listed by the source, chain 1 of 2): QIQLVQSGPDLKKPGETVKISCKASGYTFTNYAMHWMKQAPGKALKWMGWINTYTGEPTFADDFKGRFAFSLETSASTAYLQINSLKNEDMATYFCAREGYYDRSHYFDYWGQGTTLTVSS
Sequence of 28F2, recombinant IgG2c antibody (VL, as listed by the source, chain 2 of 2): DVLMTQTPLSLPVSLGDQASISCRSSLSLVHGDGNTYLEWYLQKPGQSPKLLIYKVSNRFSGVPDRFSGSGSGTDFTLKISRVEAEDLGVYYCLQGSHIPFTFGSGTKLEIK
Sequence of 36A12, monoclonal anti-A199 antibody (VH, as listed by the source, chain 1 of 2): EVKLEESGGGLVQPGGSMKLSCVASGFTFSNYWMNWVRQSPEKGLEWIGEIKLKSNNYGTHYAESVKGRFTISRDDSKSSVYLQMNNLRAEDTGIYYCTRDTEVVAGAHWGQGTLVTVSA
Sequence of 36A12, monoclonal anti-A199 antibody (VL, as listed by the source, chain 2 of 2): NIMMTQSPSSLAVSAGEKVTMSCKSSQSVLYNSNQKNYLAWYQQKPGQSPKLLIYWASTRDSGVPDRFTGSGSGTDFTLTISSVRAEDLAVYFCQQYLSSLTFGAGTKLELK
Sequence of 12B1, monoclonal anti-L198 antibody (VH, as listed by the source, chain 1 of 2): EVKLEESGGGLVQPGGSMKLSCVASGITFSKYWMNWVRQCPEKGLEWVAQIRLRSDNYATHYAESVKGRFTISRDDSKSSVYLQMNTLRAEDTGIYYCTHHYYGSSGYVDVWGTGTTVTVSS
Sequence of 12B1, monoclonal anti-L198 antibody (VL, as listed by the source, chain 2 of 2): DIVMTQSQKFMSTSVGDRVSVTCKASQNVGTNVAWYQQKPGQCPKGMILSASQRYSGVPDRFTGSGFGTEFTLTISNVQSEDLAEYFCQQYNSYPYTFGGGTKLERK
Sequence of 15F8, monoclonal anti-L198 antibody (VH, as listed by the source, chain 1 of 2): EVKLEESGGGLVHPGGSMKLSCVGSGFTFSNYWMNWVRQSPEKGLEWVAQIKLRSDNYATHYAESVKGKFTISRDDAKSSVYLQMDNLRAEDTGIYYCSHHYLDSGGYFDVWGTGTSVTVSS
Sequence of 15F8, monoclonal anti-L198 antibody (VL, as listed by the source, chain 2 of 2): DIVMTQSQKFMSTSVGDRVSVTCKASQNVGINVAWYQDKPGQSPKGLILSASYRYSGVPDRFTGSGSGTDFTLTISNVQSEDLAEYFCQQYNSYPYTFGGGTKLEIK
Sequence of 8B3, monoclonal anti-L198 antibody (VH, as listed by the source, chain 1 of 2): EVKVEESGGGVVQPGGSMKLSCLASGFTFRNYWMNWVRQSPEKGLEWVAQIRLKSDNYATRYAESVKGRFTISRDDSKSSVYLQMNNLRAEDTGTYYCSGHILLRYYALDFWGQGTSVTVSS
Sequence of 8B3, monoclonal anti-L198 antibody (VL, as listed by the source, chain 2 of 2): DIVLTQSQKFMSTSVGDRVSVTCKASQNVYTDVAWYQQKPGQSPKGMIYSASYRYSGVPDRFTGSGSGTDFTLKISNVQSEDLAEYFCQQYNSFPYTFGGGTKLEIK
Sequence of 15H11, monoclonal anti-L198 antibody (VH, as listed by the source, chain 1 of 2): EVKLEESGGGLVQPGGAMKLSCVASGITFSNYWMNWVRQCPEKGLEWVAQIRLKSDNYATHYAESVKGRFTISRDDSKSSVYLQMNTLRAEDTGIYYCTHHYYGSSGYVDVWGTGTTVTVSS
Sequence of 15H11, monoclonal anti-L198 antibody (VL, as listed by the source, chain 2 of 2): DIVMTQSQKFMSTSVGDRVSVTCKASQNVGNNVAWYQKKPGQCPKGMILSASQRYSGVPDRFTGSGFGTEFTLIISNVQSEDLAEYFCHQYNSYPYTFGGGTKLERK
Sequence of 63F6, monoclonal anti-A199 antibody (VH, as listed by the source, chain 1 of 2): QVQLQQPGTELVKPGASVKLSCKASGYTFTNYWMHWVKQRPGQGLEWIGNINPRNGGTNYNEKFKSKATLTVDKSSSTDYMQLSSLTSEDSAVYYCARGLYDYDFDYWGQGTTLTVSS
Sequence of 63F6, monoclonal anti-A199 antibody (VL, as listed by the source, chain 2 of 2): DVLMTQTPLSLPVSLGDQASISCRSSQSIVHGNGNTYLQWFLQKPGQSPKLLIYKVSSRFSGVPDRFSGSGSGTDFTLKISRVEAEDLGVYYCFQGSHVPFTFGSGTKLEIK

| binding result [1] | binding result [2] | binding result [3] | binding result [4] | binding result [5] | binding result [6] | binding result [7] | binding result [8] | IC50 [9] [ng/mL] | binding result [10] | IC50 [11] [ng/mL] | IC50 [12] [ng/mL] | IC50 [13] [ng/mL] | IC50 [14] [ng/mL] | binding result [15] | binding result [16] | binding result [17] | binding result [18] | binding result [19] | Binder |
| --- | --- | --- | --- | --- | --- | --- | --- | --- | --- | --- | --- | --- | --- | --- | --- | --- | --- | --- | --- |
| no binding (tested: 10000 ng/ml) | no binding (tested: 10000 ng/ml) | no binding (tested: 10000 ng/ml) | no binding (tested: 10000 ng/ml) | no binding (tested: 10000 ng/ml) | no binding (tested: 10000 ng/ml) | no binding (tested: 10000 ng/ml) | no binding (tested: 10000 ng/ml) |  |  |  |  |  |  |  |  |  |  |  | AATVGSLAGQPLQER[Ahx]C (not fully specified (residue 17); printed as AATVGSLAGQPLQER-Acp-C; also: C-terminal Cys conjugated to BSA carrier, BSA carrier; also called 192-206 BSA-conjugated peptide) [negative control peptide AATVGSLAGQPLQER-Acp-C (SEQ ID NO:53) conjugated to BSA] |
| no binding (tested: 10000 ng/ml) | no binding (tested: 10000 ng/ml) |  |  |  |  |  |  | 4.5 | no binding (tested: 10000 ng/ml) | 3.1 | 4.8 | 6.5 | 8.2 | no binding (tested: 1000 ng/ml) | no binding (tested: 1000 ng/ml) | no binding (tested: 1000 ng/ml) | no binding (tested: 1000 ng/ml) | no binding (tested: 1000 ng/ml) | LAGQPL[Ahx]C (not fully specified (residue 8); printed as LAGQPL-Acp-C; also: C-terminal Cys conjugated to BSA carrier, BSA carrier; also called L198-BSA peptide) [L198 N-terminal neo-epitope peptide LAGQPL-Acp-C (SEQ ID NO:52) conjugated to BSA] |
